The values that follow come from the supplement of paper PMC12764529.

± gives the half width of the 95% confidence interval.

The nature of series [1]: folding stability dG unfold from trypsin proteolysis; higher = more stable. In short, it runs like this: (§1)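 Unfolding free energy was derived, per protease or combined, by relating Bayesian-fitted K50 values from sequencing counts to a sequence-predicted unfolded-state K50 and a shared folded-state K50. The underlying digests exposed cysteine-free mini-proteins under 80 residues, in a PA-tagged cDNA display construct, to trypsin and chymotrypsin at 11 threefold-diluted concentrations and to a no-protease condition. A filter kept only designs with AlphaFold2 dimer inter-PAE above 15.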

Series [2] in a line: folding stability dG unfold from chymotrypsin proteolysis; higher = more stable. An outline of the steps:
as §1

Series [3] can be described thus: folding stability dG unfold (combined trypsin and chymotrypsin); higher = more stable. An outline of the steps: as §1

Consider “SAGGSAGGSAIKKTPNGKYLLKVTFTETYKDKKTGKTYKKTYTKTYVFDKKTNKWKSAEELSAGGSAGGSAG [r3_394_TrROS_Hall]”, for which the “folding stability dG unfold” value was 2.41 ± 0.17 kcal/mol in series [1], 3.12 ± 0.12 kcal/mol in series [2] and 2.94 ± 0.33 kcal/mol in series [3].

For the sequence “SAGGSAGGSAKEFVAKVITPDGKPFTIPFGGETEEEAIEKLKEAIKKAFPEYKGVKIELEEKSAGGSAGGSA [r18_434_TrMRF]”, the “folding stability dG unfold” value in series [1] amounted to 0.873 ± 0.057 kcal/mol; in series [2], 0.626 ± 0.27 kcal/mol; in series [3], 0.791 ± 0.2 kcal/mol.

“SAGGSAGGSAKEIEVRVEKDEETGKYRVTIRVDGKEIEIEVDVPKTLEEAERKAKELLKELSAGGSAGGSAG [r3_104_TrROS_Hall]”: the figures for the “folding stability dG unfold” value in series [1], in series [2] and in series [3] were 2.53 ± 0.082 kcal/mol, 2.77 ± 0.035 kcal/mol and 2.66 ± 0.066 kcal/mol, respectively.

Turning to “SAGGSAGGSAKENEKISIGPEITETGLDILEIKVDTNTKVVTIRFANKIYRIDKNGNISIVSSAGGSAGGSA [r18_445_TrMRF]”, the “folding stability dG unfold” value in series [1] turned out to be 1.73 ± 0.065 kcal/mol; in series [2], 2.51 ± 0.13 kcal/mol; in series [3], 2.18 ± 0.17 kcal/mol.

In the case of “SAGGSAGGSAKEYIVRIKVRLKDGEEVEIEITVSEEELEELKKALESLPNIEEAEIEVFPLPSAGGSAGGSA [r18_157_TrROS_Hall]”, the “folding stability dG unfold” value was found to be 3.82 ± 0.11 kcal/mol in series [1], 3.53 ± 0.043 kcal/mol in series [2] and 3.63 ± 0.066 kcal/mol in series [3].

On to “SAGGSAGGSAKHRVDDIQPQRHKNPDGEKPVRVRFPDNGQEERIPADNLDDIDVSDGMEVEPSAGGSAGGSA [r18_288_TrROS]”, for which the “folding stability dG unfold” value was -1.8 ± 0.45 kcal/mol in series [1], -0.631 ± 0.044 kcal/mol in series [2] and -0.855 ± 0.2 kcal/mol in series [3].

Turning to “SAGGSAGGSAKIFARAPPGQWYRITVKYKGGNGDKKEHTATIPPNNPPPDIEDVEIEPIPPGSAGGSAGGSA [r18_223_TrROS]”, the “folding stability dG unfold” value in series [1] was found to be 3.55 ± 0.14 kcal/mol; in series [2], 3.15 ± 0.066 kcal/mol; in series [3] it was 3.12 ± 0.25 kcal/mol.

For “SAGGSAGGSAKIIVNEDGYLIKITNKNGKEITIEMSEDELKELLKKLGIKKAEIVPLPKEKSAGGSAGGSAG [r3_141_TrROS_Hall]”, the “folding stability dG unfold” value in series [1] is 0.382 ± 0.075 kcal/mol; in series [2] it was 2.34 ± 0.093 kcal/mol; in series [3], 1.72 ± 0.2 kcal/mol.

For “SAGGSAGGSAKIMIPVDTPEEVKDIAEEFASNGNKEVEPHEDGWVSIEFPNGVPIEIWLPKDSAGGSAGGSA [r18_126_TrROS]”, the figures for the “folding stability dG unfold” value in series [1], in series [2] and in series [3] were -0.558 ± 0.28 kcal/mol, 0.488 ± 0.062 kcal/mol and 0.0345 ± 0.25 kcal/mol, respectively.

For the sequence “SAGGSAGGSAKKIKIKIKVYNPETKEVLELEIEVSEEEAEELAKKLAEELEKKGYKIEEVEISAGGSAGGSA [r18_3_TrROS_Hall]”, the “folding stability dG unfold” value was 4.48 ± 0.35 kcal/mol in series [1], 3.47 ± 0.084 kcal/mol in series [2] and 3.85 ± 0.12 kcal/mol in series [3].

With “SAGGSAGGSAKKITVEITIEVNGKKYKVKAEIELDEETKTLTIKVTFPDGTEFEFTFKLPEESAGGSAGGSA [r18_239_TrROS_Hall]”, the results for the “folding stability dG unfold” value in series [1], in series [2] and in series [3] were 3.86 ± 0.22 kcal/mol, 5.72 ± 0.13 kcal/mol and 5.76 ± 0.41 kcal/mol, respectively.

“SAGGSAGGSAKKIVIKVKPGMTEEEILEEIAKKLGLKPEKIKKIEIERNKDGYLYVTIEIESAGGSAGGSAG [r3_26_TrROS_Hall]”: the “folding stability dG unfold” value in series [1] turned out to be 3.66 ± 0.16 kcal/mol; in series [2], 3.87 ± 0.065 kcal/mol; in series [3], 3.82 ± 0.083 kcal/mol.

Consider “SAGGSAGGSAKKKKKKKKYKPKPVKIFKIKLKLKLEKTKDGLKLKIEEIEIEEIATLEKGLSAGGSAGGSAG [r3_397_TrROS_Hall]”, for which the “folding stability dG unfold” value in series [1] was determined as 1.88 ± 0.12 kcal/mol; in series [2], 2.72 ± 0.1 kcal/mol; in series [3], 2.43 ± 0.44 kcal/mol.

Consider “SAGGSAGGSAKKKKYKVKIKVINENGEIYEIDEIYFDEKTKKIYIKIKNKDGEEKVFEIELDSAGGSAGGSA [r18_370_TrROS_Hall]”, for which the results for the “folding stability dG unfold” value in series [1], in series [2] and in series [3] were 2.4 ± 0.059 kcal/mol, 3.74 ± 0.051 kcal/mol and 3.25 ± 0.13 kcal/mol, respectively.
